Laboratory results as given in article PMC10711656, “RZZ‐Spindly and CENP‐E form an integrated platform to recruit dynein to the kinetochore corona” (The EMBO Journal, 2023).

B1: EGFP‐CENP‐E^2366C (domain or fragment, human, UniProt Q02224 2366-2701, looked up)
chain: NKNPHVTSRATQLTTEKIRELENSLHEAKESAMHKESKIIKMQKELEVTNDIIAKLQAKVHESNKCLEKTKETIQVLQDKVALGAKPYKEEIEDLKMKLVKIDLEKMKNAKEFEKEISATKATVEYQKEVIRLLRENLRRSQQAQDTSVISEHTDPQPSNKPLTCGGGSGIVQNTKALILKSEHIRLEKEISKLKQQNEQLIKQKNELLSNNQHLSNEVKTWKERTLKREAHKQVTCENSPKSPKVTGTASKKKQITPSQCKERNLQDPVPKESPKSCFFDSRSKSLPSPHPVRYFDNSSLGLCPEVQNAGAESVDSQPGPWHASSGKDVPECKTQ
notes: source: E. coli BL21 (DE3) RP plus, purified (HisTrap FF, Superose 6); not shown: EGFP, N-terminal, kept
B2: EGFP‐CENP‐E^2070C (domain or fragment, human, UniProt Q02224 2070-2701, looked up)
chain: RQNHQVKPEKRLLSDGQQHLTESLREKCSRIKELLKRYSEMDDHYECLNRLSLDLEKEIEFQKELSMRVKANLSLPYLQTKHIEKLFTANQRCSMEFHRIMKKLKYVLSYVTKIKEEQHESINKFEMDFIDEVEKQKELLIKIQHLQQDCDVPSRELRDLKLNQNMDLHIEEILKDFSESEFPSIKTEFQQVLSNRKEMTQFLEEWLNTRFDIEKLKNGIQKENDRICQVNNFFNNRIIAIMNESTEFEERSATISKEWEQDLKSLKEKNEKLFKNYQTLKTSLASGAQVNPTTQDNKNPHVTSRATQLTTEKIRELENSLHEAKESAMHKESKIIKMQKELEVTNDIIAKLQAKVHESNKCLEKTKETIQVLQDKVALGAKPYKEEIEDLKMKLVKIDLEKMKNAKEFEKEISATKATVEYQKEVIRLLRENLRRSQQAQDTSVISEHTDPQPSNKPLTCGGGSGIVQNTKALILKSEHIRLEKEISKLKQQNEQLIKQKNELLSNNQHLSNEVKTWKERTLKREAHKQVTCENSPKSPKVTGTASKKKQITPSQCKERNLQDPVPKESPKSCFFDSRSKSLPSPHPVRYFDNSSLGLCPEVQNAGAESVDSQPGPWHASSGKDVPECKTQ
notes: codon-optimised cDNA; The His6-EGFP tag is PreScission-cleavable, but no cleavage step is described; source: insect cells (biGBac; baculovirus from Sf9, expression in Tnao38), purified (HisTrap, Superdex 200); not shown: EGFP, N-terminal, kept

Tests used:
[1] = biological target: T1, ^mCHRZZ^mChS rings (mCherry-RZZ with prefarnesylated mCherry-Spindly, polymerised with GST-MPS1) (UniProt P50748 1-2209; Q9H900 1-591; O43264 1-779; Q96EA4 1-605, incubated with GST-MPS1 (the paper says that MPS1 phosphorylates ROD on Thr13 and Ser15) | farnesylated (prefarnesylated)); test: TIRF microscopy ring-binding assay; mCherry-RZZ/mCherry-Spindly rings (approximately 40 nM) held on the coverslip by anti-mCherry GST-tagged nanobody; EGFP-CENP-E constructs (10 nM) flowed in; A-buffer (50 mM HEPES pH 8, 200 mM NaCl, 2 mM TCEP, 0.1 mg/ml BSA); room temperature; details: both partners purified
T1 construct: ROD subunit of the ROD-Zwilch-ZW10 (RZZ) complex; Zwilch subunit of the RZZ complex; ZW10 subunit of the RZZ complex; Spindly, dynein-dynactin adaptor; Constructs as in Sacristan et al, 2018, Raisch et al, 2022 and d'Amico et al, 2022; also called RZZS minicircles; RZZS rings; source: mCherry-RZZ: biGBac system, purified as previously described; mCherry-Spindly: Tnao38 insect cells, purified; 4 …
T1 sequence (P50748 whole entry, chain 1 of 4): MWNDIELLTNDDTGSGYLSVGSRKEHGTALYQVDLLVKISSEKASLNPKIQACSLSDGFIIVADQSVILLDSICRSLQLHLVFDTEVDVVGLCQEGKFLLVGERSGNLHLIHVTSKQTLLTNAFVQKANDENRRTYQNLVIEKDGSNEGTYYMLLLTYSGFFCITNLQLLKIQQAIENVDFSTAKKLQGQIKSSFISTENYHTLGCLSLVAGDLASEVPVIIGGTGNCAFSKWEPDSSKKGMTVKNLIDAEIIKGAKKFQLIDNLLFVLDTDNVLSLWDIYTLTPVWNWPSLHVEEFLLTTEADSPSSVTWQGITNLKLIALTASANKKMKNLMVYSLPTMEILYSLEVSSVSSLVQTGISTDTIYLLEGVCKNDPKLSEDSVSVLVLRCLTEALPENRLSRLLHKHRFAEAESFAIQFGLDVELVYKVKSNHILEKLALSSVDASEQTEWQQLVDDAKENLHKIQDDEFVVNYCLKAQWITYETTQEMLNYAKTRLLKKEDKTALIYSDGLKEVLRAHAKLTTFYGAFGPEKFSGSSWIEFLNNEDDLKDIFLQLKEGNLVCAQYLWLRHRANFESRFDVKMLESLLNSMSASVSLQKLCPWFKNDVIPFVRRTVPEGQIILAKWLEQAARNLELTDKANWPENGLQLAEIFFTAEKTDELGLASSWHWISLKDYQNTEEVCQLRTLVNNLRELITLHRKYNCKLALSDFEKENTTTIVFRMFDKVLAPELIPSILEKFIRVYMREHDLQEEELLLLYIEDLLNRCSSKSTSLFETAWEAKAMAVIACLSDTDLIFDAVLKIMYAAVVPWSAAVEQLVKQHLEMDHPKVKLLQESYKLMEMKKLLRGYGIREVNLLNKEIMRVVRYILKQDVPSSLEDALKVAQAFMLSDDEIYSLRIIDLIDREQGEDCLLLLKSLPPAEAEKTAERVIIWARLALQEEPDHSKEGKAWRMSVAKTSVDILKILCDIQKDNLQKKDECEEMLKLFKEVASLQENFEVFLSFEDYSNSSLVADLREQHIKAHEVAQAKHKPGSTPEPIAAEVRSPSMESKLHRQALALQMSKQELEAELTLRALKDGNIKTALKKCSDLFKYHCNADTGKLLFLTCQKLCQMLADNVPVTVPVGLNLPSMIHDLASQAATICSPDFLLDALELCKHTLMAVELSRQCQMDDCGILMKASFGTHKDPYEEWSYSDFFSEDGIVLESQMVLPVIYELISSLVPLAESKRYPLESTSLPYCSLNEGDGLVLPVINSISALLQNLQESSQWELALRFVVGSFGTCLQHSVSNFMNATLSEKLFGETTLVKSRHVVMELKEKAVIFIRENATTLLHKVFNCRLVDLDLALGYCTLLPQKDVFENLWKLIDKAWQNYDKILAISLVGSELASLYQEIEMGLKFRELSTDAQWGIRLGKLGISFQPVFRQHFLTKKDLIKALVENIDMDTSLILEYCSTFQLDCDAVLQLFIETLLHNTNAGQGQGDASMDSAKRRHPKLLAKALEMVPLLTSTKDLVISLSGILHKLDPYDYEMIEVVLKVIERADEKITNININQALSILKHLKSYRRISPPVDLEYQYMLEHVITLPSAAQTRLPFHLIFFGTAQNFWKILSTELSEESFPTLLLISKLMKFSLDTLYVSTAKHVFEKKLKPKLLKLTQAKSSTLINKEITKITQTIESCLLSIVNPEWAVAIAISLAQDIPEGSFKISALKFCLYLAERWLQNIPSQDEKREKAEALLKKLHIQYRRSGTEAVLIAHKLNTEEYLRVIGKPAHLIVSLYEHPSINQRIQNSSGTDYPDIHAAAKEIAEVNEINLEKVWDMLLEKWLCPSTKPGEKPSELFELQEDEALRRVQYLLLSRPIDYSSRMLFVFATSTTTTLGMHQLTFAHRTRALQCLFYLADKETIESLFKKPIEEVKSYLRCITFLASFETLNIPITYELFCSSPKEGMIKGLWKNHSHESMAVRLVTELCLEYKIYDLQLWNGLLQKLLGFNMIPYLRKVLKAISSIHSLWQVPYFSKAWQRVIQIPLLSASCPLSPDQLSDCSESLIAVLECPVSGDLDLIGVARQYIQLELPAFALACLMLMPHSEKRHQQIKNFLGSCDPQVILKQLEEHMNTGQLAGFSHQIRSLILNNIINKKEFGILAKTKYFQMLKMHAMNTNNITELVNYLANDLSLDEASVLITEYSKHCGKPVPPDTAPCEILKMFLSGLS
T1 sequence (Q9H900 whole entry, chain 2 of 4): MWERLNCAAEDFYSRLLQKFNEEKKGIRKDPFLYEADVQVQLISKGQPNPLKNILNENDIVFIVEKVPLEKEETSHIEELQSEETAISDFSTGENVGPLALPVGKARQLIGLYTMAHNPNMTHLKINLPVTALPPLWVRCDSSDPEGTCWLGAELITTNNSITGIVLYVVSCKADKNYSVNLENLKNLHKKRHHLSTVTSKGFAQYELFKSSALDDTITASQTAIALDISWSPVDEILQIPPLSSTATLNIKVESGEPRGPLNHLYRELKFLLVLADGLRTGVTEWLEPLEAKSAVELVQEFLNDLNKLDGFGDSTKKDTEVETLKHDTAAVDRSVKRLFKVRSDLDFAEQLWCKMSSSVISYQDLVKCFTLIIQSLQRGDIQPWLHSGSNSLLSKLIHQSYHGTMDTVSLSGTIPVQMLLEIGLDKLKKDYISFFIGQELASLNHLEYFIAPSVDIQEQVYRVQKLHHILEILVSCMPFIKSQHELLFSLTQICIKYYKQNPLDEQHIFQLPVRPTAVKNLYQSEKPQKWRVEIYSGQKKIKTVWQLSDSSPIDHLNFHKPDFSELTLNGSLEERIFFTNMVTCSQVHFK
T1 sequence (O43264 whole entry, chain 3 of 4): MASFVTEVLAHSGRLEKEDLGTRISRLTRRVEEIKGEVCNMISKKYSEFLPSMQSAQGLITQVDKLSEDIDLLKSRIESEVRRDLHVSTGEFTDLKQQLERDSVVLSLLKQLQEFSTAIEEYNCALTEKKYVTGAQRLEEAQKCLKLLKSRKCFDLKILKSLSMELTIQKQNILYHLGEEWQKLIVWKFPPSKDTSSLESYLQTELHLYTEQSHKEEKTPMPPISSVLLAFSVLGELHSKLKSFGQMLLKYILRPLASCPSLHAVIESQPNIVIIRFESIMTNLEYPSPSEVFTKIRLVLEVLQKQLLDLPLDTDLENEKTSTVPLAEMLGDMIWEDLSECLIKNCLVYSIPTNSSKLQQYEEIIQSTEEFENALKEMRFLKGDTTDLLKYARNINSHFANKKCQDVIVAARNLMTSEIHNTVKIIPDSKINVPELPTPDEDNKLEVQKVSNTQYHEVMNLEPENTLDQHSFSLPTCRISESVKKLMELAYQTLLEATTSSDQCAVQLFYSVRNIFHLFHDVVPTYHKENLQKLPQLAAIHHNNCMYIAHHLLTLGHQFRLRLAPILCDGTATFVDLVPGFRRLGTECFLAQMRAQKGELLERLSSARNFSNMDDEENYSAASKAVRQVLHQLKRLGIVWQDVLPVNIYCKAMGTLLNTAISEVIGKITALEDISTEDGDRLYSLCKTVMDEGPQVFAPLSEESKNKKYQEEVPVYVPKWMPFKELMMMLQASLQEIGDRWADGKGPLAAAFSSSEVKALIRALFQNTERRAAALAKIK
T1 sequence (Q96EA4 whole entry, chain 4 of 4): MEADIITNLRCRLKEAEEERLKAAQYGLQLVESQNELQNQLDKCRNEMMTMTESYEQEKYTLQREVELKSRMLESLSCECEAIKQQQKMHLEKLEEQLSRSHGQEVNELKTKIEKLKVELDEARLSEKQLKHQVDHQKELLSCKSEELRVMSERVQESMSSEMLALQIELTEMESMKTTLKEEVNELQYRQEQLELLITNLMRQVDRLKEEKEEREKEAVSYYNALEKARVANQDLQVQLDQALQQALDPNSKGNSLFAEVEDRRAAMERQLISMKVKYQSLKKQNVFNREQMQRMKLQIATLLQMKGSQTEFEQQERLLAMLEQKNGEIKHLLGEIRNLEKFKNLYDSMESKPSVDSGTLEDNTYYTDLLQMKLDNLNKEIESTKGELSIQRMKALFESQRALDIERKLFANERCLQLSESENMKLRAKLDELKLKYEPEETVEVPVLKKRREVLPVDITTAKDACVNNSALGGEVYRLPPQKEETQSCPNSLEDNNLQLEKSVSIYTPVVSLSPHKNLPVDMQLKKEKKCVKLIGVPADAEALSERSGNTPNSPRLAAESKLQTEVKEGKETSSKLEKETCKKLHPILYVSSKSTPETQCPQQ

[2] = biological target: T2, ^mChRZZS filaments (mCherry-RZZ with prefarnesylated Spindly, polymerised with GST-MPS1) (UniProt P50748 1-2209; Q9H900 1-591; O43264 1-779; Q96EA4 1-605, incubated with GST-MPS1 (the paper says that MPS1 phosphorylates ROD on Thr13 and Ser15) | farnesylated (prefarnesylated)); test: filament-binding assay (fluorescence microscopy); mCherry-RZZS filaments diluted 1:8, EGFP-CENP-E constructs added to 1 μM, flowed into a flow chamber and imaged; M-buffer (50 mM HEPES pH 7.5, 100 mM NaCl, 1 mM MgCl2, 1 mM TCEP); details: both partners purified
T2 construct: ROD subunit of the ROD-Zwilch-ZW10 (RZZ) complex; Zwilch subunit of the RZZ complex; ZW10 subunit of the RZZ complex; Spindly, dynein-dynactin adaptor; no mCherry is named on the Spindly of the filaments; Filaments formed essentially as described by d'Amico et al (2022); source: mCherry-RZZ: biGBac system, purified as previously described; 4 μM mCherry-RZZ and 8 μM prefarnesylated Spindly …
T2 sequence (P50748 whole entry, chain 1 of 4): as the sequence (P50748 whole entry, chain 1 of 4) above
T2 sequence (Q9H900 whole entry, chain 2 of 4): as the sequence (Q9H900 whole entry, chain 2 of 4) above
T2 sequence (O43264 whole entry, chain 3 of 4): as the sequence (O43264 whole entry, chain 3 of 4) above
T2 sequence (Q96EA4 whole entry, chain 4 of 4): as the sequence (Q96EA4 whole entry, chain 4 of 4) above

Binder	binding result [1]	binding result [2]
B1	binds	
B2	binds	binds
